Data on one molecule can be found in paper doi:10.1101/2021.02.28.432901.

The target of this test is T1, SWELL1 (LRRC8a, Leucine-Rich Repeat Containing Protein 8a), Q80WG5.
T1 chain: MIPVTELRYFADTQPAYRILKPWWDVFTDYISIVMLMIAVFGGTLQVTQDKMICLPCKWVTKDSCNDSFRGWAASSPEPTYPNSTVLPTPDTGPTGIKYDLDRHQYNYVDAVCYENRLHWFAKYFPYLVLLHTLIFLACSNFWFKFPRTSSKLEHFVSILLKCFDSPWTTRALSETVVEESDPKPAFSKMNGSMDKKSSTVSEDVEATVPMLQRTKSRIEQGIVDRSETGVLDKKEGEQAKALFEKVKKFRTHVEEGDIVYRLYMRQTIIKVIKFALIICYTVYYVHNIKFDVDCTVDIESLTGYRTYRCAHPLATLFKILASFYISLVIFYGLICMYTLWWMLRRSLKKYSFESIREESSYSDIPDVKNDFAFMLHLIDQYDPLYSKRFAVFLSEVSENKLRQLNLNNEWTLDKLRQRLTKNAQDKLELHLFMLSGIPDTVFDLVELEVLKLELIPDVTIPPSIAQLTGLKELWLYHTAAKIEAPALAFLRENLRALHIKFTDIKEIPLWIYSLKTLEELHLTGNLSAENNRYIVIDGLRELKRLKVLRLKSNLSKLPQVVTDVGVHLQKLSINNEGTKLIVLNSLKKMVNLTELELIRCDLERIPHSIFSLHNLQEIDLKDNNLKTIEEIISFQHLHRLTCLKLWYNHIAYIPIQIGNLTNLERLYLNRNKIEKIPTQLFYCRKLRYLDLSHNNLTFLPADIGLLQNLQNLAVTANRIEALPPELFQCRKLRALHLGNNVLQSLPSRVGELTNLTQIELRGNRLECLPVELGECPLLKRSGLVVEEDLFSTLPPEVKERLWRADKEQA
In words: cryo-EM structure. The settings on record: remark: other sources report otherwise.

B1: SWELL1 (LRRC8a, Leucine-Rich Repeat Containing Protein 8a), Q80WG5 1-810 (natural protein)
chain: MIPVTELRYFADTQPAYRILKPWWDVFTDYISIVMLMIAVFGGTLQVTQDKMICLPCKWVTKDSCNDSFRGWAASSPEPTYPNSTVLPTPDTGPTGIKYDLDRHQYNYVDAVCYENRLHWFAKYFPYLVLLHTLIFLACSNFWFKFPRTSSKLEHFVSILLKCFDSPWTTRALSETVVEESDPKPAFSKMNGSMDKKSSTVSEDVEATVPMLQRTKSRIEQGIVDRSETGVLDKKEGEQAKALFEKVKKFRTHVEEGDIVYRLYMRQTIIKVIKFALIICYTVYYVHNIKFDVDCTVDIESLTGYRTYRCAHPLATLFKILASFYISLVIFYGLICMYTLWWMLRRSLKKYSFESIREESSYSDIPDVKNDFAFMLHLIDQYDPLYSKRFAVFLSEVSENKLRQLNLNNEWTLDKLRQRLTKNAQDKLELHLFMLSGIPDTVFDLVELEVLKLELIPDVTIPPSIAQLTGLKELWLYHTAAKIEAPALAFLRENLRALHIKFTDIKEIPLWIYSLKTLEELHLTGNLSAENNRYIVIDGLRELKRLKVLRLKSNLSKLPQVVTDVGVHLQKLSINNEGTKLIVLNSLKKMVNLTELELIRCDLERIPHSIFSLHNLQEIDLKDNNLKTIEEIISFQHLHRLTCLKLWYNHIAYIPIQIGNLTNLERLYLNRNKIEKIPTQLFYCRKLRYLDLSHNNLTFLPADIGLLQNLQNLAVTANRIEALPPELFQCRKLRALHLGNNVLQSLPSRVGELTNLTQIELRGNRLECLPVELGECPLLKRSGLVVEEDLFSTLPPEVKERLWRADKEQA
The molecule B1 gave a stoichiometry N of 6.

What is called stoichiometry N is a count of units in the complex or per binding partner.
